For experiment [1], the target named is T1, programmed cell death ligand 1 (PD-L1) on cells (UniProt Q9NZQ7 19-290, limits assumed).
T1 construct: whole, on cells; H1975, A549 and MDA-MB-231 are human tumour cell lines; also called PD-L1 aAPC/CHO-K1 cells
As to the kind of experiment: flow cytometry on H1975 cells, FITC-labelled nanobody 1 ng/ml [b]. On the procedure:
In this example, the procedures of flow cytometric analysis of the anti-PD-L1 nanobody are as follows. The anti-PD-L1 nanobody (1 ng/ml) was pre-stained with FITC fluorescein by Fastlink Fluorescein Labeling Kit (Abnova), the procedures were performed according to the manual instructions. […] After washing with PBS, the cells were analyzed by flow cytometry using FL1 channel.
Background: A flow cytometer gives signals particle by particle.

In experiment [2] the target is T1, programmed cell death ligand 1 (PD-L1) …. As to the kind of experiment: cell-based or functional assay.

Usually EC50 (read off the curve) stands for the concentration giving half of the maximal effect. The low end stands for higher potency in that assay, the high end for lower potency in that assay.

Where a chain is given by its changes, count along the chain named.

T1 sequence (Q9NZQ7 19-290 limits assumed): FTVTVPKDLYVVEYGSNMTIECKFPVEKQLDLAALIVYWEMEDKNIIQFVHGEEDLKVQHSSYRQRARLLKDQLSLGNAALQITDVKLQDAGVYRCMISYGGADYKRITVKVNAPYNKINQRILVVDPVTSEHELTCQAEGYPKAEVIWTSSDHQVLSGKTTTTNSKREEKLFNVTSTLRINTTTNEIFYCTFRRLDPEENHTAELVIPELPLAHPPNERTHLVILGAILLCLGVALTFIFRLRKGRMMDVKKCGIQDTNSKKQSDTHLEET

B1: anti-PD-L1 nanobody clone #1 (VHH)
VHH: HVQLVESGGGLVQPGGSLRISCAASGFTFSSRAMSWVRQAPGKGLEWVSTINSDGSNTYYSDSVKDRFTISRDNAINTLYLQLNSLKTEDTAMYYCSRCPDIYCGGQYTYRGQGTQVTVSS
notes: Labelled with FITC for flow cytometry; also called PD-L1 nb
For the molecule B1, the binding result in experiment [1] is given as “binds”.

B2: anti-PD-L1 nanobody clone #67 (VHH)
VHH: B1 VHH with H1Q, I51V
For the molecule B2, the 50% effective concentration (EC50 (read off the curve)) in experiment [2] was roughly 3 µg/mL.

The values are drawn from US20220306746A1 (CHINA MEDICAL UNIVERSITY HOSPITAL, published 2022).
